These results are taken from article PMC12453405.

Common to all, as to test: quartz crystal microbalance (QCM); purified N protein injected first onto the coated quartz crystal, then GST, then Grb2-GST; PBS pH 7.4, flow 60 μl/min; Tris-HCl pH 8.0 between injections; binding ratio = amplitude difference of Grb2-GST before and after binding over the amplitude of N protein
Assay [1] has as its target PEDV-N (His-fused N protein of Alphacoronavirus PEDV) (PEDV).
Assay [2] has as its target wPDCoV-N (His-fused PDCoV N protein) (porcine deltacoronavirus (PDCoV)).
For assay [3], the target named is mPDCoV-N (P61A/P292A) (porcine deltacoronavirus (PDCoV)).

On to “Grb2-GST (pGEX-Grb2) (from UniProt B6E241 1-217) (natural protein)”, for which the results for the binding ratio in assay [1], in assay [2] and in assay [3] were 23.5%, 31.6% and 19.7%, respectively.
